Patent US20210188980A1

molecular target: cynomolgus LAG-3 ECD/Fc fusion protein (cynomolgus monkey); assay: ELISA, coated cynoLAG-3 ECD/Fc
Sequence (chain, as listed by the source limits assumed, form in doubt): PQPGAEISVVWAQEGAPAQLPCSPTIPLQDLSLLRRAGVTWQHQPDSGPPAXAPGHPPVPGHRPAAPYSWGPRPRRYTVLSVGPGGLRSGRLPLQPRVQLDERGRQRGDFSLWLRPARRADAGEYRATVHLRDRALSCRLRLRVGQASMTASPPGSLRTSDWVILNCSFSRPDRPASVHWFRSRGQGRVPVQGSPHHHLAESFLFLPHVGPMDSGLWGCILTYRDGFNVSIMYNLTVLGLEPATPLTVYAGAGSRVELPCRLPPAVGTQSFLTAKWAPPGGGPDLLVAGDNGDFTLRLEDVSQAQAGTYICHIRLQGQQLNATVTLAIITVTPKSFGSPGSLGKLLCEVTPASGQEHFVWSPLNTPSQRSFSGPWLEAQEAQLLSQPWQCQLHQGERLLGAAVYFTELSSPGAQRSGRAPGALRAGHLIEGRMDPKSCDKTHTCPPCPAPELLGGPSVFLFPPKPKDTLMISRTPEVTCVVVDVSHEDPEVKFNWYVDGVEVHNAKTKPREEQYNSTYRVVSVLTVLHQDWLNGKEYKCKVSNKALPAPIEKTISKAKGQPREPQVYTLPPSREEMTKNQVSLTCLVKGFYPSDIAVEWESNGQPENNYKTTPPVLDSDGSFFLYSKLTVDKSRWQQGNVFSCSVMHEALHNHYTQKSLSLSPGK

Binder | EC50
mAb748 (antibody, V domains shown) VH: EVQMQQSGAELVRPGASVKLSCTVSGFNIKDDYMHWVKQRPEQGLEWIGWIDPENGDTEYASKFQGKATITADTSSNTAYLQLNSLTSEDTAVYYCTYFDYWGQGTTLTVSS VL: not shown | 0.25 nM
mAb742 (antibody, V domains shown) VH: QGQLQQSGAELVRPGASVTLSCKASGYTFNDYEMHWVKQTPVHGLEWIGAIDPETGGTAYNQKFKGKAILTADKSSSTAYMELRSLTSEDSAVYYCIRWGSTVFPYWGQGTLVTVS VL: DGVLTQTPLSLPVNIGDQASISCKSTKSLLNSDGFTYLDWYLQKPGQSPQLLIYLVSNRFSGVPDRFSGSGSGTDFTLKISRVEAEDLGVYYCFQSNYLPWTFGGGTKLEIK | 0.32 nM
mAb749 (antibody, V domains shown) VH: EVQLQQSGAELVRPGASVKVSCTASDFNIKDDYVHWVKQRPEQGLEWIGWIDPENGDTEYASKFQGKATITADTSSNTAYLQLSSLTSEDTAVYFCSTWDAEENYWGQGTTLSVSS VL: DIVLTQAAPSVPVTPGESVSISCRSSKSLLHSNGNTYLYWFLQRPGQSPQVLIYRMSNLASGVPVRFSGSGSGTAFTLRISRVEAEDVGVYYCMQHLEYPFTFGSGTKLEIK | 0.33 nM
mAb747 (antibody, V domains shown) VH: EVQLQQSGAELVRPGASVKLSCTASDFNIKDDYMHWVKQRPEQGLDWIGWIVPENGNTEYASKFQGKATITADTSSNTAYLQLSSLTSEDTAVYYCTVYGDYWGQGTTLTVSS VL: DIQMTQSPSSLSASLGERVSLNCRASQEISGYLSWLQQKPDGTIKRLIYAASTLDSGVPKRFSGSRSGSDYSLTISSLESEDFAAYYCLQYASYPLTFGAGTKLELK | 0.34 nM

Further binders by falling EC50, results first:

EC50 | Binder
0.32 nM | mAb750 (antibody, V domains shown) VH: EVQLQQSGAELVRPGASVKLSCTPSGLNIKDDYIHWVKQRPEQGLEWIGWIDPENGDTEYASKFQGKATITADTSSNTAYLQLSSLTSEDSAVYYCCTADYRNWYWGQGTTLTVSS VL: not shown
0.21 nM | mAb744 (antibody, V domains shown) VH: QVQLQQSGAELVRPGTSVTLSCKASGYTFTDYEMHWMKQTPVHGLEWIGAIDPATGGTAYNQKFKGKAILTADKSSSTAYMDFRSLTSEDSAVYYCIRWGTTVFPYWGQGTLVTVS VL: DVVLTQTPLSLPVNIGDQASISCKSTKSLLNSDGFTYLDWYLQKPGQSPQLLIYLVSNRFSGVPDRFSGSGSGTDFTLKISRVEAEDLGVYYCFQSNYLPWTFGGGTKLEIK
0.21 nM | mAb746 (antibody, V domains shown) VH: EVQLQQSGAELVRPGASVKLSCTASDFNIKDDYMHWVKQRPEQGLDWIGWIVPENGNTEYASKFQGKATITADTSSNTAYLQLSSLTSEDTAVYYCTVYGDYWGQGTTLTVSS VL: DIQMTQSPSSLSASLGERVSLNCRASQEISGYLSWLQQKSDGTIKRLIYAASTLDSGVPKRFSGSRSGSDYSLTISSLESEDFADYYCLQYASYPLTFGAGTKLELK
